Patent US20250003951A1 (OXFORD UNIVERSITY INNOVATION, published 2025)

Tests used:
Assay in all cases: cell-based or functional assay
[1] = target: T1, OX289-052 (human)
T1 peptide: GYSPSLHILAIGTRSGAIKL

[2] = target: T2, OX289-075 (human)
T2 peptide: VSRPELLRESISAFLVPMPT

[3] = target: T3, OX289-205 (human)
T3 peptide: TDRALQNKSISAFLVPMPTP

[4] = target: T4, OX289-221 (human)
T4 peptide: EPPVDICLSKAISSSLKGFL

[5] = target: T5, OX802-322 (human)
T5 peptide: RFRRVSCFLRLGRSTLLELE

[6] = target: T6, OX802-321 (human)
T6 peptide: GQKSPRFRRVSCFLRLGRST

[7] = target: T7, OX628-309 (human)
T7 peptide: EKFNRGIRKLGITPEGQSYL

[8] = target: T8, OX628-308 (human)
T8 peptide: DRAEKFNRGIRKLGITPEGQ

[9] = target: T9, OX993-414 (human)
T9 peptide: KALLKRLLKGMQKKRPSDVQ

[10] = target: T10, OX993-413 (human)
T10 peptide: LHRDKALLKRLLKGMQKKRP

[11] = target: T11, OX1149-290 (human)
T11 peptide: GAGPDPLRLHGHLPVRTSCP

B1: OX289 Peptide 52 clone 1 TCR (TCR)
TCR alpha: AQSVTQPDIHITVSEGASLELRCNYSYGATPYLFWYVQSPGQGLQLLLKYFSGDTLVQGIKGFEAEFKRSQSSFNLRKPSVHWSDAAEYFCAVGAYSSASKIIFGSGTRLSIRPNIQNPDPAVYQLRD
TCR beta 1: EPEVTQTPSHQVTQMGQEVILRCVPISNHLYFYWYRQILGQKVEFLVSFYNNEISEKSEIFDDQFSVERPDGSNFTLKIRSTKLEDSAMYFCASRDRGSGANVLTFGAGSRLTVLEDLKNVFPPEVAVFEPS
TCR beta 2: AVVSQHPSWVICKSGTSVKIECRSLDFQATTMFWYRQFPKQSLMLMATSNEGSKATYEQGVEKDKFLINHASLTLSTLTVTSAHPEDSSFYICSGGWGPNTGELFFGEGSRLTVLEDLKNVFPPEVAVFEPS
Which “Clone size (percent repertoire), IFNγ+ sorted T cells after peptide stimulation” value (“Clone size (percent repertoire)” for short) [1] does the source give for B1 here?
Its value is 27.3 % of repertoire.

B2: OX289 Peptide 52 clone 2 TCR (TCR, V domains shown)
V domain 1: EDKVVQSPLSLVVHEGDTVTLNCSYEVTNFRSLLWYKQEKKAPTFLFMLTSSGIEKKSGRLSSILDKKELSSILNITATQTGDSAIYLCAVGHFSSRSSGSARQLTFGSGTQLTVLP
V domain 2: DAGVIQSPRHEVTEMGQEVTLRCKPISGHNSLFWYRQTMMRGLELLIYFNNNVPIDDSGMPEDRFSAKMPNASFSTLKIQPSEPRDSAVYFCASSLKVGVDSSYNEQFFGPGTRLTVLE
B2 was tested. Which “Clone size (percent repertoire)” value [1] did it give?
The value was 10.7 % of repertoire.

B3: OX289 Peptides 75/205 clone 1 TCR (TCR)
TCR alpha 1: NSVTQMEGPVTLSEEAFLTINCTYTATGYPSLFWYVQYPGEGLQLLLKATKADDKGSNKGFEATYRKETTSFHLEKGSVQVSDSAVYFCALRHKAAGNKLTFGGGTRVLVKPNIQNPDPAVYQLRD
TCR alpha 2: QQKEKSDQQQVKQSPQSLIVQKGGISIINCAYENTAFDYFPWYQQFPGKGPALLIAIRPDVSEKKEGRFTISFNKSAKQFSLHIMDSQPGDSATYFCAALFDGGSQGNLIFGKGTKLSVKPNIQNPDPAVYQLRD
TCR beta: AVVSQHPSWVICKSGTSVKIECRSLDFQATTMFWYRQFPKQSLMLMATSNEGSKATYEQGVEKDKFLINHASLTLSTLTVTSAHPEDSSFYICSASGPEKLFFGSGTQLSVLEDLNKVFPPEVAVFEPS
With B3 as the binder, how does the “Clone size (percent repertoire)” value [2] read?
The value was 42.4 % of repertoire.

And the “Clone size (percent repertoire)” value [3]?
The value was 42.4 % of repertoire.

B4: OX289 Peptides 75/205 clone 3 TCR (TCR, V domains shown)
V domain 1: NSVTQMEGPVTLSEEAFLTINCTYTATGYPSLFWYVQYPGEGLQLLLKATKADDKGSNKGFEATYRKETTSFHLEKGSVQVSDSAVYFCALRGRNQGGKLIFGQGTELSVKP
V domain 2: GAVVSQHPSRVICKSGTSVKIECRSLDFQATTMFWYRQFPKQSLMLMATSNEGSKATYEQGVEKDKFLINHASLTLSTLTVTSAHPEDSSFYICSARLSSGGGYEQFFGPGTRLTVLE
Which results are given for B4?
Clone size (percent repertoire), IFNγ+ sorted T cells after peptide stimulation [2]: 13.9 % of repertoire; Clone size (percent repertoire), IFNγ+ sorted T cells after peptide stimulation [3]: 13.9 % of repertoire

B5: OX289 Peptide 221 clone 1 TCR (TCR, V domains shown)
V domain 1: SLAKTTQPISMDSYEGQEVNITCSHNNIATNDYITWYQQFPSQGPRFIIQGYKTKVTNEVASLFIPADRKSSTLSLPRVSLSDTAVYYCLVVPVYNQGGKLIFGQGTELSVKP
V domain 2: KAGVTQTPRYLIKTRGQQVTLSCSPISGHRSVSWYQQTPGQGLQFLFEYFSETQRNKGNFPGRFSGRQFSNSRSEMNVSTLELGDSALYLCASSSGTSGMGETQYFGPGTRLLVLE
B5 was tested. Which “Clone size (percent repertoire)” value [4] did it give?
Its value is 65.4 % of repertoire.

B6: OX289 Peptide 221 clone 2 TCR (TCR, V domains shown)
V domain 1: GDAKTTQPNSMESNEEEPVHLPCNHSTISGTDYIHWYRQLPSQGPEYVIHGLTSNVNNRMASLAIAEDRKSSTLILHRATLRDAAVYYCILRDVGGSEKLVFGKGTKLTVNP
V domain 2: AVVSQHPSWVICKSGTSVKIECRSLDFQATTMFWYRQFPKQSLMLMATSNEGSKATYEQGVEKDKFLINHASLTLSTLTVTSAHPEDSSFYICSAKGLENQPQHFGDGTRLSILE
B6 was tested. Which “Clone size (percent repertoire)” value [4] did it give?
The value was 10.9 % of repertoire.

B7: OX802 Peptides 321/322 clone 1 TCR (TCR)
TCR alpha 1: AGQSLEQPSEVTAVEGAIVQINCTYQTSGFYGLSWYQQHDGGAPTFLSYNALDGLEETGRFSSFLSRSDSYGYLLLQELQMKDSASYFCAVLKKGYALNFGKGTSLLVTPHIQNPDPAVYQLRD
TCR alpha 2: KDQVFQPSTVASSEGAVVEIFCNHSVSNAYNFFWYLHFPGCAPRLLVKGSKPSQQGRYNMTYERFSSSLLILQVREADAAVYYCAVAGGYNKLIFGAGTRLAVHPYIQNPDPAVYQLRD
TCR beta: EAGVVQSPRYKIIEKKQPVAFWCNPISGHNTLYWYLQNLGQGPELLIRYENEEAVDDSQLPKDRFSAERLKGVDSTLKIQPAELGDSAVYLCASSLEAGDSYEQYFGPGTRLTVTEDLKNVFPPEVAVFEPS
B7 was tested. Which “Clone size (percent repertoire)” value [5] did it give?
The value was 47.4 % of repertoire.

And the “Clone size (percent repertoire)” value [6]?
The value was 47.4 % of repertoire.

B8: OX802 Peptides 321/322 clone 2 TCR (TCR, V domains shown)
V domain 1: KDQVFQPSTVASSEGAVVEIFCNHSVSNAYNFFWYLHFPGCAPRLLVKGSKPSQQGRYNMTYERFSSSLLILQVREADAAVYYCAVTGGYNKLIFGAGTRLAVHP
V domain 2: EAGVVQSPRYKIIEKKQPVAFWCNPISGHNTLYWYLQNLGQGPELLIRYENEEAVDDSQLPKDRFSAERLKGVDSTLKIQPAELGDSAVYLCASSLEAGDSYEQYFGPGTRLTVTE
How did the “Clone size (percent repertoire)” value [5] turn out when B8 was run?
The value was 20 % of repertoire.

And the “Clone size (percent repertoire)” value [6]?
Its value is 20 % of repertoire.

B9: OX885 Peptides OX628-308/309 clone 1 TCR (TCR, V domains shown)
V domain 1: KTTQPPSMDCAEGRAANLPCNHSTISGNEYVYWYRQIHSQGPQYIIHGLKNNETNEMASLIITEDRKSSTLILPHATLRDTAVYYCIVRVAVTNAGKSTFGDGTTLTVKP
V domain 2: EAQVTQNPRYLITVTGKKLTVTCSQNMNHEYMSWYRQDPGLGLRQIYYSMNVEVTDKGDVPEGYKVSRKEKRNFPLILESPSPNQTSLYFCASRYYSADTQYFGPGTRLTVLE
Which results are given for B9?
Clone size (percent repertoire), IFNγ+ sorted T cells after peptide stimulation [7]: 76.1 % of repertoire; Clone size (percent repertoire), IFNγ+ sorted T cells after peptide stimulation [8]: 76.1 % of repertoire

B10: OX993 Peptides 413/414 clone 1 TCR (TCR)
TCR alpha 1: GESVGLHLPTLSVQEGDNSIINCAYSNSASDYFIWYKQESGKGPQFIIDIRSNMDKRQGQRVTVLLNKTVKHLSLQIAATQPGDSAVYFCAEIGSGAGSYQLTFGKGTKLSVIPNIQNPDPAVYQLRD
TCR alpha 2: GESVGLHLPTLSVQEGDNSIINCAYSNSASDYFIWYKQESGKGPQFIIDIRSNMDKRQGQRVTVLLNKTVKHLSLQIAATQPGDSAVYFCAENQGGSSYKLIFGSGTRLLVRPDIQNPDPAVYQLRD
TCR beta: DTGVSQNPRHKITKRGQNVTFRCDPISEHNRLYWYRQTLGQGPEFLTYFQNEAQLEKSRLLSDRFSAERPKGSFSTLEIQRTEQGDSAMYLCASSSQSGVDTEAFFGQGTRLTVVEDLNKVFPPEVAVFEPS
Which “Clone size (percent repertoire)” value [9] does the source give for B10 here?
Its value is 26.7 % of repertoire.

What about the “Clone size (percent repertoire)” value [10] of the same binder?
Its value is 26.7 % of repertoire.

B11: OX993 Peptides 413/414 clone 2 TCR (TCR)
TCR alpha: AQSVTQLGSHVSVSEGALVLLRCNYSSSVPPYLFWYVQYPNQGLQLLLKYTTGATLVKGINGFEAEFKKSETSFHLTKPSAHMSDAAEYFCAVSPPAQKLVFGTGTRLLVSPNIQNPDPAVYQLRD
TCR beta 1: NAGVTQTPKFQVLKTGQSMTLQCAQDMNHEYMSWYRQDPGMGLRLIHYSVGAGITDQGEVPNGYNVSRSTTEDFPLRLLSAAPSQTSVYFCASQETGVGGELFFGEGSRLTVLEDLKNVFPPEVAVFEPS
TCR beta 2: NAGVTQTPKFQVLKTGQSMTLQCAQDMNHEYMSWYRQDPGMGLRLIHYSVGAGITDQGEVPNGYNVSRSTTEDFPLRLLSAAPSQTSVYFCASSTTAVVSPLHFGNGTRLTVTEDLNKVFPPEVAVFEPS
For B11, which “Clone size (percent repertoire)” value [9] is on record?
Its value is 13.7 % of repertoire.

And the “Clone size (percent repertoire)” value [10]?
The value was 13.7 % of repertoire.

B12: OX993 Peptides 413/414 clone 3 TCR (TCR, V domains shown)
V domain 1: RGEDVEQSLFLSVREGDSSVINCTYTDSSSTYLYWYKQEPGAGLQLLTYIFSNMDMKQDQRLTVLLNKKDKHLSLRIADTQTGDSAIYFCAEKKEGFKTIFGAGTRLFVKA
V domain 2: NAGVTQTPKFQVLKTGQSMTLQCAQDMNHEYMSWYRQDPGMGLRLIHYSVGAGITDQGEVPNGYNVSRSTTEDFPLRLLSAAPSQTSVYFCASQETGVGGELFFGEGSRLTVLE
What does the source list for B12?
Clone size (percent repertoire), IFNγ+ sorted T cells after peptide stimulation [9]: 11.6 % of repertoire; Clone size (percent repertoire), IFNγ+ sorted T cells after peptide stimulation [10]: 11.6 % of repertoire

B13: OX1149 Peptide 290 clone 1 TCR (TCR, V domains shown)
V domain 1: GENVEQHPSTLSVQEGDSAVIKCTYSDSASNYFPWYKQELGKRPQLIIDIRSNVGEKKDQRIAVTLNKTAKHFSLHITETQPEDSAVYFCAASIATDKLIFGTGTRLQVFP
V domain 2: KAGVTQTPRYLIKTRGQQVTLSCSPISGHRSVSWYQQTPGQGLQFLFEYFSETQRNKGNFPGRFSGRQFSNSRSEMNVSTLELGDSALYLCASSWRGQGEGYTFGSGTRLTVVE
How did the “Clone size (percent repertoire)” value [11] turn out when B13 was run?
The value was 20.4 % of repertoire.

B14: OX1149 Peptide 290 clone 2 TCR (TCR, V domains shown)
V domain 1: RGNGKNQVEQSPQSLIILEGKNCTLQCNYTVSPFSNLRWYKQDTGRGPVSLTIMTFSENTKSNGRYTATLDADTKQSSLHITASQLSDSASYICVVTGGANNLFFGTGTRLTVIP
V domain 2: KAGVTQTPRYLIKTRGQQVTLSCSPISGHRSVSWYQQTPGQGLQFLFEYFSETQRNKGNFPGRFSGRQFSNSRSEMNVSTLELGDSALYLCASSEAGEWTQYFGPGTRLTVLE
B14 was tested. Which “Clone size (percent repertoire)” value [11] did it give?
Its value is 7 % of repertoire.

B15: OX1149 Peptide 290 clone 3 TCR (TCR)
TCR alpha 1: GDAKTTQPNSMESNEEEPVHLPCNHSTISGTDYIHWYRQLPSQGPEYVIHGLTSNVNNRMASLAIAEDRKSSTLILHRATLRDAAVYYCILVEGNEKLTFGTGTRLTIIPNIQNPDPAVYQLRD
TCR alpha 2: SQELEQSPQSLIVQEGKNLTINCTSSKTLYGLYWYKQKYGEGLIFLMMLQKGGEEKSHEKITAKLDEKKQQSSLHITASQPSHAGIYLCGADVQGSQGNLIFGKGTKLSVKPNIQNPDPAVYQLRD
TCR beta: EPEVTQTPSHQVTQMGQEVILRCVPISNHLYFYWYRQILGQKVEFLVSFYNNEISEKSEIFDDQFSVERPDGSNFTLKIRSTKLEDSAMYFCASRLGGRTTEAFFGQGTRLTVVEDLNKVFPPEVAVFEPS
For B15, which “Clone size (percent repertoire)” value [11] is on record?
The value was 4.8 % of repertoire.
